This is an account of results in article PMC2141715.

Where two headings read alike, the source gives them in different places.

What all share (assay): co-IP
For test [1], the target named is calnexin (canine pancreas microsomes) (dog (endogenous in canine pancreas microsomes)) (UniProt P24643).
Test [2] addresses calreticulin (canine pancreas microsomes) (dog (endogenous in canine pancreas microsomes)) (UniProt P28490).
For test [3], the target named is calnexin (canine pancreas microsomes) (dog (endogenous in canine pancreas microsomes)) (UniProt P24643). The source holds these as a separate data set.
The target in test [4] is calreticulin (canine pancreas microsomes) (dog (endogenous in canine pancreas microsomes)) (UniProt P28490). This is another data set of the same source.

Sequence of UniProt P24643 (P24643 21-593): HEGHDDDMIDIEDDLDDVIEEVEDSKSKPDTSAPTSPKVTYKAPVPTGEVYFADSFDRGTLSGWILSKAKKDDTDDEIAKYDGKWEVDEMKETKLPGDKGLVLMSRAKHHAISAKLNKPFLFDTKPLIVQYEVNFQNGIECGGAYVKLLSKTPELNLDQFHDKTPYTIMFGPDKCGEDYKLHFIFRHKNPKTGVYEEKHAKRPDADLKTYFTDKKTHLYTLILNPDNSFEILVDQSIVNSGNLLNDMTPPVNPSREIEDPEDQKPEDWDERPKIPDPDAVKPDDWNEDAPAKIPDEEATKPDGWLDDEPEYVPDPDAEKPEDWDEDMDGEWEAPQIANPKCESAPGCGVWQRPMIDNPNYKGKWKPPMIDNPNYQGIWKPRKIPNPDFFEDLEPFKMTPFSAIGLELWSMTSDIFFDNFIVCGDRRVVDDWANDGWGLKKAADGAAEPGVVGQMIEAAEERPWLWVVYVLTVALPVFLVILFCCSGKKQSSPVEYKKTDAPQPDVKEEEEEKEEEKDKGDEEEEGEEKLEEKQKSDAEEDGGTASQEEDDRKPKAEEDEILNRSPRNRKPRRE

For “anchor-free, truncated, soluble form of HA (domain or fragment)”, the percent of HA coprecipitated in test [1] is 54%; in test [2] it was 50%.

On to “influenza virus hemagglutinin (HA), wild type, X31 (natural protein)”, for which, in test [3], the binding ratio of the IT2 form (IT1 = 1.0, normalised to anti-HA precipitations) worked out at 0.65; the binding ratio of the NT form (IT1 = 1.0, normalised to anti-HA precipitations) amounted to 0.63; the percent of HA in calnexin–HA complexes without calreticulin is 8%; the percent of HA in ternary complexes with m2 and m3 is 40%. Besides, in test [4], the binding ratio of the IT2 form (IT1 = 1.0, normalised to anti-HA precipitations) came out at 0.57; the binding ratio of the NT form (IT1 = 1.0, normalised to anti-HA precipitations) was 0.16; the percent of HA coprecipitated amounted to 45%; the percent of HA in calreticulin–HA complexes without calnexin was found to be 10%. In addition, in test [4], the percent of HA in ternary complexes with m2 and m3 came to 40%. In test [1], this substance came in with a percent of HA coprecipitated of 82%. In addition, in test [2], the percent of HA coprecipitated was 50%.
